Experimental findings from patent publication US20250296995A1 (GlaxoSmithKline, published 2025) are described below.

For assay [1], the target named is T1, recombinant Plasmodium falciparum circumsporozoite protein (CSP) (Plasmodium falciparum, UniProt Q7K740 21-375).
T1 construct: also called recombinant CSP
As to the kind of experiment: SPR, recombinant CSP. A general note: SPR reads the build-up and loss of mass on a sensor chip optically.

Assay [2] addresses T1, recombinant Plasmodium falciparum …. As to the kind of experiment: binding affinity column of the in vivo table (SPR, CSP).
Assay [3] deals with recombinant Plasmodium falciparum circumsporozoite protein (CSP) (Plasmodium falciparum, UniProt P19597 21-375). Kind of assay: cell-based or functional assay.
Assay [4] has as its target T2, recombinant CNTNAP2 protein (human, UniProt Q9UHC6 28-1262).
T2 sequence (looked up): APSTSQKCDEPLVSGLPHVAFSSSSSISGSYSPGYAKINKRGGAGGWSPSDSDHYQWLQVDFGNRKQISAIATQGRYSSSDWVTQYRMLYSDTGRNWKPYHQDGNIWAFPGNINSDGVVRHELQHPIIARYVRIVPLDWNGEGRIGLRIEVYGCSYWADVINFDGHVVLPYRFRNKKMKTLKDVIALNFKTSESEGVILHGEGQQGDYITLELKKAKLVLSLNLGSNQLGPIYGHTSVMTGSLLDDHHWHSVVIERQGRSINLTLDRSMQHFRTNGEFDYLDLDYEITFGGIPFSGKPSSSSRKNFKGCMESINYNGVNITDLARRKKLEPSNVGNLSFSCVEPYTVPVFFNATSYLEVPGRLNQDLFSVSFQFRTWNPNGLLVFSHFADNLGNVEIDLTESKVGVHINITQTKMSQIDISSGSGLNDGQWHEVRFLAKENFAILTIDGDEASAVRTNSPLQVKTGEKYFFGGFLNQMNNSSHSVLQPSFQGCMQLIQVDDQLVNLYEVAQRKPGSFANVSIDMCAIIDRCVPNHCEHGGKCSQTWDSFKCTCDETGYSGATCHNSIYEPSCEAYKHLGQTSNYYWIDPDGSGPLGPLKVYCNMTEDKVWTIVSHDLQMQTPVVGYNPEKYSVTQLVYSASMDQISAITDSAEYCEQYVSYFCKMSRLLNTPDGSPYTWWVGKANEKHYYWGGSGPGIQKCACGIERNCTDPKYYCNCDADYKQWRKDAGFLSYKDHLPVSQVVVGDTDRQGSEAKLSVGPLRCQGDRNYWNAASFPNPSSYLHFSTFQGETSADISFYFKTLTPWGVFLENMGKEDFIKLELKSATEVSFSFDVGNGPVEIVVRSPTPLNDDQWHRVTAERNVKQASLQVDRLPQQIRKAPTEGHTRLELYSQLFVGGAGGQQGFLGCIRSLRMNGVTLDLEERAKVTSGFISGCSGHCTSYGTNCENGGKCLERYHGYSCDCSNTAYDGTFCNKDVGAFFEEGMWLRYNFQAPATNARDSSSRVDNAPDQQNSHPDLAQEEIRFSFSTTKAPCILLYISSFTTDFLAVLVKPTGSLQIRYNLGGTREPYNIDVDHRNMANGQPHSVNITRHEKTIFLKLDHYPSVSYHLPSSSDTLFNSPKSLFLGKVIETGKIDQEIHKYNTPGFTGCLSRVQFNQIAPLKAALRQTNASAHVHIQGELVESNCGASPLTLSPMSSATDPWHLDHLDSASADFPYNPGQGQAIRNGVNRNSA
Kind of assay: SPR with recombinant protein.

Assay [5] deals with T3, recombinant SPOCK1 protein (human, UniProt Q08629 22-439).
T3 sequence (looked up): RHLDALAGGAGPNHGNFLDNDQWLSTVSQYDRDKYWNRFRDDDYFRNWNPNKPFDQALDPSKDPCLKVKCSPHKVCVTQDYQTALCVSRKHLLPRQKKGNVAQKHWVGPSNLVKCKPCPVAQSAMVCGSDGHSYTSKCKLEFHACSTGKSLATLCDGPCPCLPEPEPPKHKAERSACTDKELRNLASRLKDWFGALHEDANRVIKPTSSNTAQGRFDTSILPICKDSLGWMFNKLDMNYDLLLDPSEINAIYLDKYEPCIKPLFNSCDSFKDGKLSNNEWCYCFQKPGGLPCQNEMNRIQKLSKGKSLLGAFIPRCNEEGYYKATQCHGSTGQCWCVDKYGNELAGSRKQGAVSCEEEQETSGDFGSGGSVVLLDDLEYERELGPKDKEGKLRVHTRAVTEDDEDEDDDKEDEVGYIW
As to the kind of experiment: SPR with recombinant protein.

Several values for one entry are separate records, joined by “and”; a condition that tells them apart may be missing. Identical values can stand only once.

T1 sequence (Q7K740 21-375 limits assumed): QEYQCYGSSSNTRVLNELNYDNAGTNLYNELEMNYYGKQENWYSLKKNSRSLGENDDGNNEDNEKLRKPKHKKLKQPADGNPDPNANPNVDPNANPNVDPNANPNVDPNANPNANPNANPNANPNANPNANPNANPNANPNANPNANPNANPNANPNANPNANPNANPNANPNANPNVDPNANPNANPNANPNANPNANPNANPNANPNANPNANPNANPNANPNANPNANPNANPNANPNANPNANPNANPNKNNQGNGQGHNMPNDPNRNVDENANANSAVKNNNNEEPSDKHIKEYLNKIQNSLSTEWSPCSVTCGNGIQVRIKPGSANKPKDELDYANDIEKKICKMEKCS
Chain of recombinant Plasmodium falciparum circumsporozoite protein (CSP) (Plasmodium falciparum, UniProt P19597 21-375) (P19597 21-375 limits assumed): as the sequence (Q7K740 21-375 limits assumed) above

B1: AB-000222 (antibody, V domains shown)
VH: QVQLVESGGGVVQPGRSLRLSCAASGFTFSNFGMHWVRQAPGKGLEWVAVIWYDGSKKYYADFVKGRFTISRDNSKYMLYLQMTSLGAEDTAIYYCARDIRGAYRVTDGGFDYWGQGALVTVSS
VL: QFVLTQPPSVSGAPGQRVTISCTGSSFNIGAGYDVHWYQQLPEKAPKLLIYGSTNRASEVPDRFSGSKSGTSASLAITGLQPEDEADYYCQSYDSSLSGYVFGTGTKVTVL
In the case of B1, in assay [1], the Kd (commonly the constant that tells how readily two partners part at equilibrium) is 0.153 nM and 0.152 nM; the koff (as a rule, the first-order rate constant of dissociation) is 0.00118 s⁻¹; the kon (in general, the second-order rate constant of association) was determined as 7.76e+06 M⁻¹ s⁻¹. Also, the Kd in assay [2] is 0.152 nM.

B2: AB001387 (antibody, V domains shown)
VH: QVQLVESGGGVVQPGRSLRLSCAASGFTFSNYGMHWVRQAPGKGLEWVAVIWYDGSNKFYADSVKGRFTSSRDNSKNTLYLQMNSLRAEDTAVYYCARDGRFLTTVTTAYFDYWGQGTLVTVSS
VL: QSVLTQPPSVSGAPGQRVTISCTGSSSNIGAGYDVHWYQQLPGTAPKLLIYGNSNRPSGVPDRFSGSKSGTSASLAITGLQAEDEADYYCQSYDSSLSALVFGGGTKLTVL
As to B2, in assay [1], the Kd was determined as 0.676 nM, the koff worked out at 0.00111 s⁻¹ and the kon turned out to be 1.65e+06 M⁻¹ s⁻¹. Besides, in assay [2], the Kd stood at 0.676 nM.

B3: 356-ALE-LS (antibody, human IgG1, kappa)
heavy: QVQLVESGGGVVQPGRSLRLSCAASGFTFRNFGMHWVRQTPGKGLEWVAVIWHDGSNKFYADSVEGRFTISRDNSKNMIYLQMNSLRVEDTAIYYCARDSLFYDHDNSGYYGYWGQGTLVTVSSASTKGPSVFPLAPSSKSTSGGTAALGCLVKDYFPEPVTVSWNSGALTSGVHTFPAVLQSSGLYSLSSVVTVPSSSLGTQTYICNVNHKPSNTKVDKKVEPKSCDKTHTCPPCPAPELLAGPSVFLFPPKPKDTLMISRTPEVTCVVVDVSHEDPEVKFNWYVDGVEVHNAKTKPREEQYNSTYRVVSVLTVLHQDWLNGKEYKCKVSNKALPLPEEKTISKAKGQPREPQVYTLPPSRDELTKNQVSLTCLVKGFYPSDIAVEWESNGQPENNYKTTPPVLDSDGSFFLYSKLTVDKSRWQQGNVFSCSVLHEALHSHYTQKSLSLSPGK
light: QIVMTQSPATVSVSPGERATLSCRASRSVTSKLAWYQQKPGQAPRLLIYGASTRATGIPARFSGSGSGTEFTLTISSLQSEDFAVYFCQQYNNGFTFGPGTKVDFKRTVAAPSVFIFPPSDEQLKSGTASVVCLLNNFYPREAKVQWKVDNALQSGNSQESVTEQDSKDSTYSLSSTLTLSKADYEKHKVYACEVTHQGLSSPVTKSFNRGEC
Regarding B3, in assay [3], the “EC50 in ADCP assay” value is less than 1 pM. The binding result in assay [4] is “no binding (tested: 300 nM)”.

B4: 356-DEA-FV-LS (antibody, human IgG1, kappa)
heavy: QVQLVESGGGVVQPGRSLRLSCAASGFTFRNFGMHWVRQTPGKGLEWVAVIWHDGSNKFYADSVEGRFTISRDNSKNMIYLQMNSLRVEDTAIYYCARDSLFYDHDNSGYYGYWGQGTLVTVSSASTKGPSVFPLAPSSKSTSGGTAALGCLVKDYFPEPVTVSWNSGALTSGVHTFPAVLQSSGLYSLSSVVTVPSSSLGTQTYICNVNHKPSNTKVDKKVEPKSCDKTHTCPPCPAPELLAGPDVFLFPPKPKDVLMISRTPEVTCVVVDVSHEDPEVKFNWYVDGVEVHNFKTKPREEQYNSTYRVVSVLTVLHQDWLNGKEYKCKVSNKALPAPEEKTISKAKGQPREPQVYTLPPSRDELTKNQVSLTCLVKGFYPSDIAVEWESNGQPENNYKTTPPVLDSDGSFFLYSKLTVDKSRWQQGNVFSCSVLHEALHSHYTQKSLSLSPGK
light: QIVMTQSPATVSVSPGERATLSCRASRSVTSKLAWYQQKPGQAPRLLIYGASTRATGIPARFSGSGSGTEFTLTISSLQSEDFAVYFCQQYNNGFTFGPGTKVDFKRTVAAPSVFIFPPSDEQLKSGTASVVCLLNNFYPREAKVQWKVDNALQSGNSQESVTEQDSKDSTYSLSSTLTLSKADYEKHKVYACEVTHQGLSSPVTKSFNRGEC
As for B4, the “EC50 in ADCP assay” value in assay [3] was less than 1 pM. The binding result in assay [4] was “no binding (tested: 300 nM)”.

B5: AB001428 (antibody, V domains shown)
VH: QVQLVESGGGVVQPGRSLRLSCVVSGFTFSSYGMHWVRQAPGKGLEWVAIIWYDGSKKYYADSVKGRFTISRDNSKNTLYLQMNSLRAEDTAVYYCARPGDSSGSHGEAFDIWGQGTMVTVSS
VL: DIQMTQSPSTLSASVGDRVTITCRPSQSISNWLAWYQQKPGKAPKLLIYKASSLESGVPSRFSGSGSGTEFTLTISGLQPDDFATYYCQQYNTYWTFGQGTKVEIK
For the molecule B5, in assay [1], the Kd was 1.18 nM, the koff amounted to 0.00101 s⁻¹ and the kon came to 855000 M⁻¹ s⁻¹. In assay [2], the Kd was determined as 1.18 nM.

B6: AB001480 (antibody, V domains shown)
VH: QVQLVESGGGVVQPGRSLRLSCAASGFTFSFYGMHWVRQAPGKGLEWVAVIWYDGSNKYYADSVRGRFTISRDNSKNTLYLQMNSLRAEDTAVYYCARVGNDYDDHGSALDMWGQGTMVTVSS
VL: DIQMTQSPSTLSASVGDRVTITCRASQSISSWLAWYQQKPGKAPKLLIYRASSLESGVPPRFSGSGSGTEFTLTISSLQPDDFGIYYCQQYNSRWTFGQGTKVEIK
As to B6, in assay [1], the Kd was 1.17 nM and 1.18 nM; the koff was determined as 0.000659 s⁻¹; the kon turned out to be 561000 M⁻¹ s⁻¹. Further, in assay [2], the Kd stood at 1.18 nM.

B7: AB-000356 LS (antibody, V domains shown)
VH: QVQLVESGGGVVQPGRSLRLSCAASGFTFRNFGMHWVRQTPGKGLEWVAVIWHDGSNKFYADSVEGRFTISRDNSKNMIYLQMNSLRVEDTAIYYCARDSLFYDHDNSGYYGYWGQGTLVTVSS
VL: QIVMTQSPATVSVSPGERATLSCRASRSVTSKLAWYQQKPGQAPRLLIYGASTRATGIPARFSGSGSGTEFTLTISSLQSEDFAVYFCQQYNNGFTFGPGTKVDFK
As for B7, in assay [1], the Kd turned out to be 2.46 nM, the koff was found to be 0.00107 s⁻¹ and the kon was found to be 436000 M⁻¹ s⁻¹. The Kd in assay [2] was 2.46 nM.

B8: AB001472 (antibody, V domains shown)
VH: QVQLVESGGGVVQPGRSLRLSCAASGFTFSSYGMHWVRQAPGKGLEWVAVIWYDGSNKYYADSVKGRFTISRDNSQNTLFLQMNSLRAEDTAVYYCARVGEYSSSPDWGAAFDIWGQGTMVTVSS
VL: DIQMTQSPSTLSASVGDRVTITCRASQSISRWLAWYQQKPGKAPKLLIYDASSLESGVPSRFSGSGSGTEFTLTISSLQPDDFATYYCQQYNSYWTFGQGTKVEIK
Take B8: in assay [1], the dissociation constant (Kd) was 2.11 nM, the koff came out at 0.000518 s⁻¹ and the kon was found to be 246000 M⁻¹ s⁻¹. Also, the Kd in assay [2] turned out to be 2.11 nM.

B9: 338-LS (antibody, V domains shown)
VH: QVQLVESGGGVVQPGRSLRLSCAASGFSFSTYGMHWIRQVPGKGLEWVAIIWHDGSKEFYADSVKGRFTISRDNSKKKLYLQMNSLRAEDTAIYYCVKDDFDSSGHSYFHYWGQGTLVTVSS
VL: GVVMTQSPLSLPVTLGQPASISCRSSQSLVHSDGNTYVHWFQQRPGQSPRRLIYKVSNRDSGVPDRFSGSGSGTDFTLKISRVEAEDVGVYYCMQGTQWWTFGQGTKVEIK
Regarding B9, the binding result in assay [5] is “no binding (tested: 300 nM)”.

B10: 338-ALE-LS (antibody, human IgG1, kappa, V domains shown)
VH: QVQLVESGGGVVQPGRSLRLSCAASGFSFSTYGMHWIRQVPGKGLEWVAIIWHDGSKEFYADSVKGRFTISRDNSKKKLYLQMNSLRAEDTAIYYCVKDDFDSSGHSYFHYWGQGTLVTVSS
VL: GVVMTQSPLSLPVTLGQPASISCRSSQSLVHSDGNTYVHWFQQRPGQSPRRLIYKVSNRDSGVPDRFSGSGSGTDFTLKISRVEAEDVGVYYCMQGTQWWTFGQGTKVEIKR
B10: in assay [5], the binding result is recorded as “no binding (tested: 300 nM)”.
